Consider 1 molecule from patent publication US20170015737A1 (published 2017).

Assay [1] deals with recombinant human TTR F87M/L110M (human, UniProt P02766 21-147). The assay can be described thus: SPR, mAb captured on anti-mouse IgG chip, TTR F87M/L110M as analyte.
In assay [2] the target is T1, pH4.0-treated TTR (human, UniProt P02766 21-147). Kind of assay: ELISA, pH4-TTR captured on anti-His coated plate. (An ELISA detects its analyte on a solid surface through an enzyme-linked reagent.)
Assay [3] has as its target T1, pH4.0-treated TTR. The assay can be described thus: sandwich ELISA on pH4-TTR (the table prints 14.6 for 6C1).
The target of assay [4] is T1, pH4.0-treated TTR. The assay can be described thus: sandwich ELISA (pH4-TTR).

B1: 6C1 (antibody, V domains shown)
VH: EVQLVESGGGLVQPGGSLKLSCAASGFTFSNYYMSWVRQTPEKRLEWVAYISIDGNNIYHPDSVKGRFTISRDNAKNTLYLQMSSLKSEDTAMYYCARDSDYGYFDVWGTGTTVTVSS
VL: DVLMTQTPLSLPVSLGDQASISCRSSQSIVHSNGNTYLEWYLQKRGQSPKLLIYKVSKRFSGVPDRFSGSGSGTDFILKISRVEAEDLGVYYCFQGSHVPLTFGGGTKLELK
Turning to B1, the Kd in assay [1] came out at 9.01 nM; in assay [2] it was 16 nM; in assay [3], 14.5 nM; in assay [4], 14.6 nM. Also, the koff in assay [1] came out at 0.000415 s⁻¹. In assay [1], the kon was found to be 46100 M⁻¹ s⁻¹.

For orientation: Kd means the free concentration of one partner at which half of the binding sites on the other are occupied at equilibrium, for simple one-to-one binding. What is called koff is a measure of how fast the partners let go of each other. By kon is commonly meant the second-order rate constant of association.
